Where a chain is given by its changes, count along the chain named. In names and notes the source's numbering stands. Where two headings read alike, the source gives them in different places. Each block holds one binder with its values, some of them ahead of it.
Experiments:
human HER4 [1] = biological target: T1, human HER4 (human, UniProt Q15303 26-1308); test: FACS CHO-HER4, 2000 nM
hHER3 full length [2] = biological target: T2, hHER3 full length (human, UniProt P21860 20-1342); test: cell-based or functional assay
[3] = biological target: T3, Chimeric chicken Her3-human domain 1 (AA1-206 human, AA207-642 chicken) (chicken/human chimera); test: FACS, HEK293 with chimeric HER3
T3 construct: Transmembrane and extracellular regions, on HEK293 cells
T3 chain: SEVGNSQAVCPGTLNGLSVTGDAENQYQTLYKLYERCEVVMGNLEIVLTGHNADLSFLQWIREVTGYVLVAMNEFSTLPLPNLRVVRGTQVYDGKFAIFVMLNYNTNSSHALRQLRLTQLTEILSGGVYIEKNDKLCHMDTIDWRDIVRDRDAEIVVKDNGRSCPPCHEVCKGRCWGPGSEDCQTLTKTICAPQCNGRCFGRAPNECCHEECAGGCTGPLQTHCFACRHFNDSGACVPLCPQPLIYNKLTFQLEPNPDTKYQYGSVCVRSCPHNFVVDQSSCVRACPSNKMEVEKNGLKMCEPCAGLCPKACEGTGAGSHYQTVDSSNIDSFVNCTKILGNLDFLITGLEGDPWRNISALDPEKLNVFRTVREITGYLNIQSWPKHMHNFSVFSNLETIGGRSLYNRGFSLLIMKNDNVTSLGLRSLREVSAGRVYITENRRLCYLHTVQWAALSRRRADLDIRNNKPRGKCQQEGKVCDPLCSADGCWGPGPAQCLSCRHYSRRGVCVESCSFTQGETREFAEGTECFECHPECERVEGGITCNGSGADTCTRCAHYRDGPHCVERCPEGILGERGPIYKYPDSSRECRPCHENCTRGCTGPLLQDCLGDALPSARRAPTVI

human HER1 [4] = biological target: T4, human HER1 (human, UniProt P00533 25-1210); test: FACS CHO-HER1, 222 nM
T4 construct: also called EGFR; ErbB1

hHER3 full length [5] = biological target: T2, hHER3 full length; test: FACS, 400 nM, competitor 04C07-biotin
[6] = biological target: T5, human HER3-Fc (R&D Systems, 348-RB) (human, UniProt P21860 20-643); test: SPR, HER3-Fc captured by anti-Fc
T5 construct: Bought; also called hHER3-Fc; Fc-HER3; Fc part of the bought chimera not given, not described

hHER3 full length [7] = biological target: T2, hHER3 full length; test: FACS, 400 nM, competitor 18E08-biotin
hHER3 full length [8] = biological target: T2, hHER3 full length; test: FACS, 400 nM, competitor 17C08-biotin
hHER3 full length [9] = biological target: T2, hHER3 full length; test: FACS competition with HRG1-β1-EGF, CHO-HER3
human HER1 [10] = biological target: T4, human HER1; test: FACS CHO-HER1, 2000 nM
human HER4 [11] = biological target: T1, human HER4; test: FACS, CHO-HER4
hHER3 full length [12] = biological target: T2, hHER3 full length; test: FACS, 400 nM, competitor 04F10-biotin
human HER2 [13] = biological target: T6, human HER2 (human, UniProt P04626 23-1255); test: FACS, CHO-HER2
T6 construct: also called hHER2

hHER3 full length [14] = biological target: T2, hHER3 full length; test: FACS, 400 nM, competitor 21B02-biotin
human HER2 [15] = biological target: T6, human HER2; test: FACS CHO-HER2, 667 nM
hHER3 full length [16] = biological target: T2, hHER3 full length; test: FACS, 400 nM, competitor 23F05-biotin
human HER2 [17] = biological target: T6, human HER2; test: FACS CHO-HER2, 222 nM
human HER2 [18] = biological target: T6, human HER2; test: FACS CHO-HER2, 2000 nM
hHER3 full length [19] = biological target: T2, hHER3 full length; test: cell-based or functional assay; remark: listed apart in the source
[20] = biological target: T7, cHER3ECD (Maccaca fascicularis HER3 extracellular domain) (Macaca fascicularis, UniProt P21860 20-643 (human entry)); test: ELISA, coated cHER3-ECD
T7 construct: also called cyno HER3ECD; cyno HER3-ECD
T7 chain: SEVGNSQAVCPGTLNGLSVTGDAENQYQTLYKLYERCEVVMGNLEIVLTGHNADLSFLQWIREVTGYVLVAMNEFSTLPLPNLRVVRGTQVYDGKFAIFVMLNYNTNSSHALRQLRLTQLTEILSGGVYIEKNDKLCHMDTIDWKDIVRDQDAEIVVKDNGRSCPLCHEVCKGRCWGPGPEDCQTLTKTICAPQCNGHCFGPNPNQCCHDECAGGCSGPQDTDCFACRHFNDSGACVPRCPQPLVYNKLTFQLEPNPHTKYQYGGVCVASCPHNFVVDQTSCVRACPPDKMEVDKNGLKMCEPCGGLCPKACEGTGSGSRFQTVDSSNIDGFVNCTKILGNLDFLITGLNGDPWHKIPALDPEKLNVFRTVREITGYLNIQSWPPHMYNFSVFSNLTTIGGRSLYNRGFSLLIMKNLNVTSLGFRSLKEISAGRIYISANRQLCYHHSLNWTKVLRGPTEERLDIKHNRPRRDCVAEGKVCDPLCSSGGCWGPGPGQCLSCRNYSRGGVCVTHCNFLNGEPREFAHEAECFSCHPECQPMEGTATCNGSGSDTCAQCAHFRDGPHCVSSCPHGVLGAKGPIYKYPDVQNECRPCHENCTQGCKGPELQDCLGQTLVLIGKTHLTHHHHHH

human HER1 [21] = biological target: T4, human HER1; test: FACS CHO-HER1, 667 nM
human HER1 [22] = biological target: T4, human HER1; test: FACS, CHO-HER1
human HER4 [23] = biological target: T1, human HER4; test: FACS CHO-HER4, 222 nM
human HER4 [24] = biological target: T1, human HER4; test: FACS CHO-HER4, 667 nM
[25] = biological target: T8, hHER3 ECD (human HER3 extracellular domain) (human, UniProt P21860 20-643); test: ELISA, coated hHER3-ECD
T8 construct: also called recombinant HER3-ECD

[26] = biological target: T5, human HER3-Fc (R&D Systems, 348-RB); test: HRG competition alphascreen
[27] = biological target: T5, human HER3-Fc (R&D Systems, 348-RB); test: HRG competition alphascreen; remark: listed apart in the source
[28] = biological target: T8, hHER3 ECD (human HER3 extracellular …); test: SPR off rate on HER3-ECD

T1 sequence (Q15303 26-1308 limits assumed): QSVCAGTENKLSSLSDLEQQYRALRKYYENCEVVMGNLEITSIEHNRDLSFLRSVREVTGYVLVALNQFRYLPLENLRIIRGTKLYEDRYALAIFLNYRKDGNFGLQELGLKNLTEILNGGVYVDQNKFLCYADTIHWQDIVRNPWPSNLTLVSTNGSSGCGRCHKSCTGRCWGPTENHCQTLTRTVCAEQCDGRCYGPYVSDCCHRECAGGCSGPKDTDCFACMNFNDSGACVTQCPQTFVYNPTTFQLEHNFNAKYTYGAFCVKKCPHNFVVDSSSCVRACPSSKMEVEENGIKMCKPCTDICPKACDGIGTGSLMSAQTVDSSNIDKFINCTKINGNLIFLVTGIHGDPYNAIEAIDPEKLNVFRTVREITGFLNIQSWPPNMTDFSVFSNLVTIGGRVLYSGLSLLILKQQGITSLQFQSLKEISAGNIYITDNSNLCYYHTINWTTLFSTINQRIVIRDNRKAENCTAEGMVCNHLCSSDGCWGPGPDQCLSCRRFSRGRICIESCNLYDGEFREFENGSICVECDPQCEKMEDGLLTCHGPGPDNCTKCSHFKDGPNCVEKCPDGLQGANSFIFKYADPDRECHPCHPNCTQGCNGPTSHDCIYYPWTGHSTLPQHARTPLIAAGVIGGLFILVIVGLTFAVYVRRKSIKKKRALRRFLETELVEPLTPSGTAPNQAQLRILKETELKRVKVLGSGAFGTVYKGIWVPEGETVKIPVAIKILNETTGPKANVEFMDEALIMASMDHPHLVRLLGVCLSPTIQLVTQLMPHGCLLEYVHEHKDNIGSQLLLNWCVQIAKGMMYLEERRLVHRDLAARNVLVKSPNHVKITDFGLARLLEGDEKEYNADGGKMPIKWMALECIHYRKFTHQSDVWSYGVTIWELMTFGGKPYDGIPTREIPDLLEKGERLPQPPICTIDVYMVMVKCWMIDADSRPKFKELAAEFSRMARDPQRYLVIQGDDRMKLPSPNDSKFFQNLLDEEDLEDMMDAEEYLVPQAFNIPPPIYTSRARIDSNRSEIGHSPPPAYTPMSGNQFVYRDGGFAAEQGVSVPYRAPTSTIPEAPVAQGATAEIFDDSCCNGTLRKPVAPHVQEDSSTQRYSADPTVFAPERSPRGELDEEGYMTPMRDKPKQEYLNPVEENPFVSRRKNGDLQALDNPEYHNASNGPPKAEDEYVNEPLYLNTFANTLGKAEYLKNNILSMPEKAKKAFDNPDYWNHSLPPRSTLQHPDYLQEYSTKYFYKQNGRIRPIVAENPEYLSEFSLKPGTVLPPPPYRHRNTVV

MCF (human HER4 [1]): 96 | IC50, HRG1-β1 induced pAkt, MCF-7 (hHER3 full length [2]): 6.02e-09 M | inhibition of HRG1-β1 induced pERK1/2, MCF-7 (hHER3 full length [2]): < 50 % inhibition | binding result [3]: binds | MCF (human HER1 [4]): 82 | % competition (hHER3 full length [5]): 98% | Kd [6]: 0.29 nM | kon [6]: 490000 M⁻¹ s⁻¹ | % competition (hHER3 full length [7]): 0% | % competition (hHER3 full length [8]): 0% | IC50 (hHER3 full length [9]): 16.1 nM | MCF (human HER1 [10]): 61 | binding result (human HER4 [11]): no binding (tested: 2000 nM) | % competition (hHER3 full length [12]): 31% | binding result (human HER2 [13]): no binding (tested: 2000 nM) | % competition (hHER3 full length [14]): 0% | MCF (human HER2 [15]): 63 | % competition (hHER3 full length [16]): 0% | MCF (human HER2 [17]): 61 | MCF (human HER2 [18]): 77 | IC50, HRG1-β1 induced pHER3, MCF-7 (hHER3 full length [19]): 5.18e-09 M | IC50, HRG1-β1 induced pHER3, MDA-MB468 (hHER3 full length [19]): 3e-08 M | EC50 [20]: 0.45 nM | MCF (human HER1 [21]): 101 | binding result (human HER1 [22]): no binding (tested: 2000 nM) | MCF (human HER4 [23]): 60 | MCF (human HER4 [24]): 95 | EC50 [25]: 0.4 nM
B1: 18B05 (VHH)
VHH: EVQLVESGGGLVQAGGSLRLSCAASGLTFGSAPMGWYRQAPGKERELVAYISGDERIWYGDSVKGRFTISRDTTKNTLYLQMNSLKPEDTAVYYCVSDVKVRHWGQGTQVTVSS

MCF (human HER4 [1]): 120 | IC50, HRG1-β1 induced pAkt, MCF-7 (hHER3 full length [2]): 8.04e-09 M | IC50, HRG1-β1 induced pERK1/2, MCF-7 (hHER3 full length [2]): 8.98e-08 M | binding result [3]: binds | MCF (human HER1 [4]): 154 | % competition (hHER3 full length [5]): 100% | Kd [6]: 0.24 nM | kon [6]: 427000 M⁻¹ s⁻¹ | % competition (hHER3 full length [7]): 0% | % competition (hHER3 full length [8]): 0% | IC50 (hHER3 full length [9]): 20.1 nM | MCF (human HER1 [10]): 133 | binding result (human HER4 [11]): no binding (tested: 2000 nM) | % competition (hHER3 full length [12]): 15% | binding result (human HER2 [13]): no binding (tested: 2000 nM) | % competition (hHER3 full length [14]): 0% | MCF (human HER2 [15]): 347 | % competition (hHER3 full length [16]): 0% | MCF (human HER2 [17]): 436 | MCF (human HER2 [18]): 256 | IC50, HRG1-β1 induced pHER3, MCF-7 (hHER3 full length [19]): 1.53e-09 M | IC50, HRG1-β1 induced pHER3, MDA-MB468 (hHER3 full length [19]): 1.8e-08 M | EC50 [20]: 0.29 nM | MCF (human HER1 [21]): 60 | binding result (human HER1 [22]): no binding (tested: 2000 nM) | MCF (human HER4 [23]): 149 | MCF (human HER4 [24]): 149 | EC50 [25]: 0.29 nM
B2: 18F05 (VHH)
VHH: EVQLVESGGGLVQPGGSLRLSCVASGFTFSSYWMYWVRQAPGKGVEWVSAISPGGVERYTDSVKGRFTISRDNAKNTLYLQMNSLKSEDTAMYYCARLTSFATPESQGTQVTVSS
notes: also called 18F5

IC50 [26]: 1.02 nM
B3: HER3MS00043 (VHH)
VHH: EVQLVESGGGLVQPGGSLRLSCAASGFTFSSYPMSWVRQAPGKGPEWVSTVSPGGITTSYADSVKGRFTISRDNSKNTLYLQMNSLRPEDTAVYYCLRDLNNRGQGTLVTVSS
notes: 04C07 basic + A46E; also called HER3MS0043

IC50 [26]: 1 nM
B4: HER3MS00044 (VHH)
VHH: B3 VHH with E46A, L97A
notes: 04C07 basic + L93A; also called HER3MS0044

MCF (human HER4 [1]): 242 | IC50, HRG1-β1 induced pAkt, MCF-7 (hHER3 full length [2]): 5.78e-09 M | IC50, HRG1-β1 induced pERK1/2, MCF-7 (hHER3 full length [2]): 2.78e-09 M | binding result [3]: binds | MCF (human HER1 [4]): 66 | % competition (hHER3 full length [5]): 100% | Kd [6]: 0.11 nM | kon [6]: 363000 M⁻¹ s⁻¹ | % competition (hHER3 full length [7]): 0% | % competition (hHER3 full length [8]): 0% | IC50 (hHER3 full length [9]): 75.9 nM | MCF (human HER1 [10]): 59 | binding result (human HER4 [11]): no binding (tested: 2000 nM) | % competition (hHER3 full length [12]): 32% | binding result (human HER2 [13]): no binding (tested: 2000 nM) | % competition (hHER3 full length [14]): 5% | MCF (human HER2 [15]): 51 | % competition (hHER3 full length [16]): 0% | MCF (human HER2 [17]): 51 | MCF (human HER2 [18]): 73 | IC50, HRG1-β1 induced pHER3, MCF-7 (hHER3 full length [19]): 4.51e-09 M | IC50, HRG1-β1 induced pHER3, MDA-MB468 (hHER3 full length [19]): 2.46e-08 M | EC50 [20]: 1.15 nM | MCF (human HER1 [21]): 52 | binding result (human HER1 [22]): no binding (tested: 2000 nM) | MCF (human HER4 [23]): 110 | MCF (human HER4 [24]): 117 | EC50 [25]: 1.02 nM
B5: 17E08 (VHH)
VHH: EVQLVESGGGLVQPGGSLRLSCSASGSIFGLNAMGWYRQTPGKERELVAGITSITRVGSTRYADSAKGRFTISGDYAKNTVYLQMNSLKPEDTGVYYCRMSIVKSGGADYWGQGTQVTVSS

IC50 [27]: 0.788 nM | koff [28]: 0.00017 s⁻¹
B6: HER3MS00076 (VHH)
VHH: EVQLVESGGGLVQPGGSLRLSCAASGSIGGLNAMAWYRQAPGKERELVAGIFGVGSTRYADSVKGRFTISRDISKNTVFLQMNSLRSEDTAVYYCRMSSVTRGSSDYWGQGTLVTVSS
notes: 17B05 + A74S, N83R, Q108L; also called HER3MS0076; 17B05 basic variant

IC50 [27]: 0.731 nM | koff [28]: 0.00018 s⁻¹
B7: HER3MS00080 (VHH)
VHH: B6 VHH with I73N, F79Y
notes: 17B05 basic + I73N + F79Y; also called HER3MS0080

IC50 [27]: 0.94 nM | koff [28]: 0.00018 s⁻¹
B8: HER3MS00084 (VHH)
VHH: B6 VHH with S87P
notes: 17B05 basic + S84P; also called HER3MS0084

IC50 [27]: 0.76 to 0.94 nM | koff [28]: 0.00019 s⁻¹
B9: HER3MS00085 (VHH)
VHH: B6 VHH with S87A
notes: 17B05 basic + S84A; also called HER3MS0085

IC50 [27]: 4.95 nM | koff [28]: 0.00084 s⁻¹
B10: HER3MS00083 (VHH)
VHH: B6 VHH with I73N, F79Y, R96A
notes: also called HER3MS0083

Source: patent US20130136748A1 (Ablynx, published 2013)
